Results reported in PMC4230619 (Molecular Biology of the Cell, 2014).

Target: the molecule itself
Experiment: single-molecule TIRF step-intensity counting in live cells

B1: dynamin2-EGFP (natural protein, human (endogenous in SUM159), UniProt P50570 1-870, looked up)
chain: MGNRGMEELIPLVNKLQDAFSSIGQSCHLDLPQIAVVGGQSAGKSSVLENFVGRDFLPRGSGIVTRRPLILQLIFSKTEHAEFLHCKSKKFTDFDEVRQEIEAETDRVTGTNKGISPVPINLRVYSPHVLNLTLIDLPGITKVPVGDQPPDIEYQIKDMILQFISRESSLILAVTPANMDLANSDALKLAKEVDPQGLRTIGVITKLDLMDEGTDARDVLENKLLPLRRGYIGVVNRSQKDIEGKKDIRAALAAERKFFLSHPAYRHMADRMGTPHLQKTLNQQLTNHIRESLPALRSKLQSQLLSLEKEVEEYKNFRPDDPTRKTKALLQMVQQFGVDFEKRIEGSGDQVDTLELSGGARINRIFHERFPFELVKMEFDEKDLRREISYAIKNIHGVRTGLFTPDLAFEAIVKKQVVKLKEPCLKCVDLVIQELINTVRQCTSKLSSYPRLREETERIVTTYIREREGRTKDQILLLIDIEQSYINTNHEDFIGFANAQQRSTQLNKKRAIPNQGEILVIRRGWLTINNISLMKGGSKEYWFVLTAESLSWYKDEEEKEKKYMLPLDNLKIRDVEKGFMSNKHVFAIFNTEQRNVYKDLRQIELACDSQEDVDSWKASFLRAGVYPEKDQAENEDGAQENTFSMDPQLERQVETIRNLVDSYVAIINKSIRDLMPKTIMHLMINNTKAFIHHELLAYLYSSADQSSLMEESADQAQRRDDMLRMYHALKEALNIIGDISTSTVSTPVPPPVDDTWLQSASSHSPTPQRRPVSSIHPPGRPPAVRGPTPGPPLIPVPVGAAASFSAPPIPSRPGPQSVFANSDLFPAPPQIPSRPVRIPPGIPPGVPSRRPPAAPSRPTIIRPAEPSLLD
  stoichiometry N: 2
